Results on 14 molecules are retold here after patent US20110059889A1 (SYNTONIX PHARMACEUTICALS, published 2011).

The target in test [1] is T1, soluble human FcRn (shFcRn) (human, UniProt P55899 24-297; P61769 21-119).
T1 construct: Biotinylated for the ELISA, amine-coupled to a CM5 chip for SPR; also called biotinylated shFcRn
As to the kind of experiment: IgG competition ELISA.

Test [2] deals with T1, soluble human FcRn (shFcRn). Nature of the test: IgG competition ELISA. This is another data set of the same source. On the technique in general: In an ELISA, binding on a coated surface is turned into a signal by an enzyme label.
Description: (§1) The wells were coated with 100 μl/well of 1 μg/ml biotinylated-shFcRn in Buffer A. The plate was sealed and incubated at 37° C. for 2 hours. Afterwards, the plate was washed with 200 μl/well of Buffer B (Buffer B: 100 mM MES pH 6, 150 mM NaCl, 0.5% BSA IgG-free (Jackson ImmunoResearch, West Grove, Pa.), 0.05% Tween-20). […] To allow for mixing, the plate was rocked for 2 minutes, sealed and incubated at 37° C. for 2 hours. […] The plate was covered, incubated for 30 minutes at room temperature and washed 4 times with 200 μl/well of ice-cold buffer B. SureBlue TMB substrate solution (100 μl/well, KPL, Gaithersburg, Md.) was added and the plate was allowed to incubate at room temperature until color developed, which took 5 to 10 minutes. Once color developed, 100 μl/well of TMB stop solution (KPL, Gaithersburg, Md.) was added and the absorbance was measured at 450 nm. The data was plotted as absorbance vs. peptide concentration to derive the inhibitory concentration 50% (IC₅₀) values.
Test [3] shares this target. Nature of the test: IgG competition ELISA. The source holds these as a separate data set.
Test [4] has the same target. As to the kind of experiment: SPR pH 6.
Description: (§2) The following steps were performed to cross-link soluble human or cynomolgus FcRn to the dextran surface of a CM5 sensor chip (Biacore AB, Uppsala, Sweden) by an amine coupling reaction involving 1-ethyl-(3-dimethylaminopropyl)-carbodiimide hydrochloride (EDC) (Biacore AB, Uppsala, Sweden) and N-hydroxysuccinimide (NHS) (Biacore AB, Uppsala, Sweden) as recommended by Biacore (BIAapplications Handbook, version AB, section 4.2, Biacore AB, Uppsala, Sweden). […] Residual sites on the FcRn flow cell were blocked with 1 M ethanolamine hydrochloride pH 8.5 (Biacore AB, Uppsala, Sweden). A control flow cell was blocked with ethanolamine for reference subtraction. For analysis of the monomeric peptides, FcRn was coated to a final density of 4000-5000 response units (RU). For analysis of the peptide dimers, FcRn was coated to a density of 2000-2500 RU. All SPR measurements were performed using a BIACORE 3000 Instrument (Biacore AB Uppsala, Sweden). For measurements done at either pH 6 or pH 7.4, experiments were performed in 50 mM phosphate, 100 mM sodium chloride, 0.01% surfactant P20 (Biacore AB, Uppsala, Sweden).
(§3) Ten, 2-fold dilutions of the peptide were injected over the FcRn-CM5 chip at a rate of 20 μl/min for 2 min. The peptide was dissociated from the chip for 2.5 minutes with buffer. Any remaining peptide was removed from the chip with a 30 second injection of HBS-P buffer (Biacore AB, Uppsala, Sweden) at a rate of 30 μl/min. Sensorgrams were generated and analyzed using BiaEval software version 3.1 (Biacore AB, Uppsala, Sweden). The equilibrium RU observed for each injection was plotted against concentration. The equilibrium KD values were derived by analysis of the plots using the steady state affinity model included in the BiaEval software.
Test [5] shares this target. Nature of the test: IgG competition ELISA. This is another data set of the same source.
For test [6] the target is unchanged. Nature of the test: SPR pH 7.4.
Description: as §2, §3
The target is the same in test [7]. As to the kind of experiment: IgG competition ELISA. This is another data set of the same source.
Description: as §1

Read-outs that look alike come from different tables or passages of the source. Numbered stars: 1 amine (or outer) side, 2 acyl side, 3 side chain; on linkers, the order of the positions; unused ones are H or OH. Bridge positions count the residues as written; N and C are the ends. Square brackets hold non-standard residues; d marks the D form. Ends that are not written are not given here. X4 = (3S)‑3‑amino‑2‑oxo‑1‑piperidine‑acetic acid, O=C1[C@@H](N[*:1])CCCN1CC(=O)[*:2]; 5,5‑bicyclic dipeptide mimic = not defined here; Tyr(Me) = COc1ccc(C[C@H](N[*:1])C(=O)[*:2])cc1; Phe(3-Cl) = N[C@@H](Cc1cccc(Cl)c1)C(=O)O; Dip = N[C@H](C(=O)O)C(c1ccccc1)c1ccccc1; Phe(2-Cl) = N[C@@H](Cc1ccccc1Cl)C(=O)O; His(1-Me) = 1-methylhistidine; NMeL = CN[C@@H](CC(C)C)C(=O)O; Pen = CC(C)(S)[C@H](N)C(=O)O; hCys = N[C@@H](CCS)C(=O)O; Sar = CNCC(=O)O

T1 sequence (P55899 24-297 limits assumed, chain 1 of 2): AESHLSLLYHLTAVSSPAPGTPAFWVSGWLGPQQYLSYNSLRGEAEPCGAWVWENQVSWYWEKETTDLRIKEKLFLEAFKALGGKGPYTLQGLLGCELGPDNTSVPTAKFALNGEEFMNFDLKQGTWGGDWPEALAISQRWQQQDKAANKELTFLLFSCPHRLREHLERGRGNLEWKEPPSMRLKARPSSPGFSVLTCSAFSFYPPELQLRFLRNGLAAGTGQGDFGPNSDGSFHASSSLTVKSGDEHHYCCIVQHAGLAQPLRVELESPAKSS
T1 sequence (P61769 21-119 limits assumed, chain 2 of 2): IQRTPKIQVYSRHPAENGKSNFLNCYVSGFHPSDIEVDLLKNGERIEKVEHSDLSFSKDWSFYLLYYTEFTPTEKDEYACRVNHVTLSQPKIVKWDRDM

B1: Peptide No. 224 (peptide)
peptide: RF[Pen]TGH[Dip]GGLYPC-NH2
modifications: disulfide 3-13; N-terminus assumed
SMILES: CC(C)C[C@@H]1NC(=O)CNC(=O)CNC(=O)[C@H](C(c2ccccc2)c2ccccc2)NC(=O)[C@H](Cc2c[nH]cn2)NC(=O)CNC(=O)[C@H]([C@@H](C)O)NC(=O)[C@@H](NC(=O)[C@H](Cc2ccccc2)NC(=O)[C@@H](N)CCCNC(=N)N)C(C)(C)SSC[C@@H](C(N)=O)NC(=O)[C@@H]2CCCN2C(=O)[C@H](Cc2ccc(O)cc2)NC1=O
The term IC50 denotes the concentration that inhibits the measured activity by half. Low readings indicate inhibition by little substance, high ones a need for much substance. In turn, B1 showed an IC50 in test [1] of 32 µM.

B2: Peptide No. 198 (peptide)
peptide: RF[Pen]TGHF[5,5‑bicyclic dipeptide mimic]LYPC-NH2
modifications: disulfide 3-12; reading uncertain
notes: isomer only in drawing CHEM-US-00084
B2 displayed an IC50 in test [2] of 23 µM.

B3: Peptide No. 69 (peptide)
peptide: QRF[Pen]TGHFGGLYP[hCys]NGP-NH2
modifications: disulfide 4-14; N-terminus assumed
SMILES: CC(C)C[C@@H]1NC(=O)CNC(=O)CNC(=O)[C@H](Cc2ccccc2)NC(=O)[C@H](Cc2c[nH]cn2)NC(=O)CNC(=O)[C@H]([C@@H](C)O)NC(=O)[C@@H](NC(=O)[C@H](Cc2ccccc2)NC(=O)[C@H](CCCNC(=N)N)NC(=O)[C@@H](N)CCC(N)=O)C(C)(C)SSCC[C@@H](C(=O)N[C@@H](CC(N)=O)C(=O)NCC(=O)N2CCC[C@H]2C(N)=O)NC(=O)[C@@H]2CCCN2C(=O)[C@H](Cc2ccc(O)cc2)NC1=O
Regarding B3, in test [3], the IC50 was determined as 2 µM.

B4: Peptide No. 239 (peptide)
peptide: RFCTGHFXLYPC
modifications: not fully specified; Pen 3; X 8 = 3(S)-3-amino-2-oxo-1-azepine acetic acid in place of Gly-Gly; NMeLeu 9; disulfide 3-12; C-terminal amide
Regarding B4, in test [2], the half-inhibitory concentration (IC50) was determined as 0.62 µM.

B5: Peptide No. 221 (peptide)
peptide: RF[Pen]TGH[Phe(2-Cl)]GGLYPC-NH2
modifications: disulfide 3-13; N-terminus assumed
SMILES: CC(C)C[C@@H]1NC(=O)CNC(=O)CNC(=O)[C@H](Cc2ccccc2Cl)NC(=O)[C@H](Cc2c[nH]cn2)NC(=O)CNC(=O)[C@H]([C@@H](C)O)NC(=O)[C@@H](NC(=O)[C@H](Cc2ccccc2)NC(=O)[C@@H](N)CCCNC(=N)N)C(C)(C)SSC[C@@H](C(N)=O)NC(=O)[C@@H]2CCCN2C(=O)[C@H](Cc2ccc(O)cc2)NC1=O
In test [1], B5 displayed an IC50 of 4 µM.

B6: Peptide No. 138 (peptide)
peptide: QRF[Pen]TG[His(1-Me)]FGGLYPCNGP-NH2
modifications: disulfide 4-14
As a reminder, the Kd is the constant that tells how readily two partners part at equilibrium. Low values mean higher affinity, high ones lower affinity. In turn, B6 showed a dissociation constant (Kd) in test [4] of 0.74 µM. Besides, the IC50 in test [5] is 3.4 µM.

B7: Peptide No. 40 (peptide)
peptide: QRF[Pen]TGHFG[dP]LYPCNGP-NH2
modifications: disulfide 4-14; N-terminus assumed
SMILES: CC(C)C[C@@H]1NC(=O)[C@H]2CCCN2C(=O)CNC(=O)[C@H](Cc2ccccc2)NC(=O)[C@H](Cc2c[nH]cn2)NC(=O)CNC(=O)[C@H]([C@@H](C)O)NC(=O)[C@@H](NC(=O)[C@H](Cc2ccccc2)NC(=O)[C@H](CCCNC(=N)N)NC(=O)[C@@H](N)CCC(N)=O)C(C)(C)SSC[C@@H](C(=O)N[C@@H](CC(N)=O)C(=O)NCC(=O)N2CCC[C@H]2C(N)=O)NC(=O)[C@@H]2CCCN2C(=O)[C@H](Cc2ccc(O)cc2)NC1=O
Molecule B7 came in with an equilibrium dissociation constant (Kd) in test [6] of 1.1 µM. For the same molecule, in test [7], the half-inhibitory concentration (IC50) was determined as 1.4 µM.

B8: Peptide No. 33 (peptide)
peptide: QRFCTGHFGGLYP[Pen]NGP-NH2
modifications: disulfide 4-14; N-terminus assumed
SMILES: CC(C)C[C@@H]1NC(=O)CNC(=O)CNC(=O)[C@H](Cc2ccccc2)NC(=O)[C@H](Cc2c[nH]cn2)NC(=O)CNC(=O)[C@H]([C@@H](C)O)NC(=O)[C@@H](NC(=O)[C@H](Cc2ccccc2)NC(=O)[C@H](CCCNC(=N)N)NC(=O)[C@@H](N)CCC(N)=O)CSSC(C)(C)[C@@H](C(=O)N[C@@H](CC(N)=O)C(=O)NCC(=O)N2CCC[C@H]2C(N)=O)NC(=O)[C@@H]2CCCN2C(=O)[C@H](Cc2ccc(O)cc2)NC1=O
B8: the half-inhibitory concentration (IC50) in test [3] is 18 µM.

B9: Peptide No. 266 (peptide)
peptide: RF[Pen]TGAFG[Sar][NMeL]YPC-NH2
modifications: disulfide 3-13; N-terminus assumed
SMILES: CC(C)C[C@H]1C(=O)N[C@@H](Cc2ccc(O)cc2)C(=O)N2CCC[C@H]2C(=O)N[C@H](C(N)=O)CSSC(C)(C)[C@H](NC(=O)[C@H](Cc2ccccc2)NC(=O)[C@@H](N)CCCNC(=N)N)C(=O)N[C@@H]([C@@H](C)O)C(=O)NCC(=O)N[C@@H](C)C(=O)N[C@@H](Cc2ccccc2)C(=O)NCC(=O)N(C)CC(=O)N1C
For the molecule B9, in test [4], the equilibrium dissociation constant (Kd) was 9.9 µM. Moreover, the 50% inhibitory concentration (IC50) in test [5] is greater than 100 µM.

B10: Peptide No. 248 (peptide)
peptide: RFCTGXFGGLYPC
modifications: Pen 3; Thz 6; Sar 9; NMeL 10; disulfide 3-13; C-terminal amide
In turn, B10 showed a dissociation constant (Kd) in test [4] of 0.84 µM. The molecule also displayed an IC50 in test [5] of 1.6 µM.

B11: Peptide No. 56 (peptide)
peptide: QRF[Pen]TGH[Tyr(Me)]GGLYPCNGP-NH2
modifications: disulfide 4-14; N-terminus assumed
SMILES: COc1ccc(C[C@@H]2NC(=O)[C@H](Cc3c[nH]cn3)NC(=O)CNC(=O)[C@H]([C@@H](C)O)NC(=O)[C@@H](NC(=O)[C@H](Cc3ccccc3)NC(=O)[C@H](CCCNC(=N)N)NC(=O)[C@@H](N)CCC(N)=O)C(C)(C)SSC[C@@H](C(=O)N[C@@H](CC(N)=O)C(=O)NCC(=O)N3CCC[C@H]3C(N)=O)NC(=O)[C@@H]3CCCN3C(=O)[C@H](Cc3ccc(O)cc3)NC(=O)[C@H](CC(C)C)NC(=O)CNC(=O)CNC2=O)cc1
In test [1], B11 gave a concentration for half-maximal inhibition (IC50) of 100 µM.

B12: Peptide No. 58 (peptide)
peptide: QRFCTGHXGGLYPCNGP
modifications: Pen 4; 2-pyridylalanine 8; disulfide 4-14; C-terminal amide
In test [1], B12 registered an IC50 of 90 µM.

B13: Peptide No. 222 (peptide)
peptide: RF[Pen]TGH[Phe(3-Cl)]GGLYPC-NH2
modifications: disulfide 3-13; N-terminus assumed
SMILES: CC(C)C[C@@H]1NC(=O)CNC(=O)CNC(=O)[C@H](Cc2cccc(Cl)c2)NC(=O)[C@H](Cc2c[nH]cn2)NC(=O)CNC(=O)[C@H]([C@@H](C)O)NC(=O)[C@@H](NC(=O)[C@H](Cc2ccccc2)NC(=O)[C@@H](N)CCCNC(=N)N)C(C)(C)SSC[C@@H](C(N)=O)NC(=O)[C@@H]2CCCN2C(=O)[C@H](Cc2ccc(O)cc2)NC1=O
Turning to B13, in test [1], the 50% inhibitory concentration (IC50) worked out at 3.7 µM.

B14: Peptide No. 193 (peptide)
peptide: RF[Pen]TGHF[X4]LYPC-NH2
modifications: disulfide 3-12; N-terminus assumed
SMILES: CC(C)C[C@@H]1NC(=O)CN2CCC[C@H](NC(=O)[C@H](Cc3ccccc3)NC(=O)[C@H](Cc3c[nH]cn3)NC(=O)CNC(=O)[C@H]([C@@H](C)O)NC(=O)[C@@H](NC(=O)[C@H](Cc3ccccc3)NC(=O)[C@@H](N)CCCNC(=N)N)C(C)(C)SSC[C@@H](C(N)=O)NC(=O)[C@@H]3CCCN3C(=O)[C@H](Cc3ccc(O)cc3)NC1=O)C2=O
Take B14: in test [2], the IC50 is 7.3 µM.
